The text below walks through data of PMC2045677, “Thyroid hormone receptor orthologues from invertebrate species with emphasis on Schistosoma mansoni”.

In data set [1] the target is T1, SmTRα (Schistosoma mansoni, UniProt Q2TUU7 1-1115).
T1 sequence: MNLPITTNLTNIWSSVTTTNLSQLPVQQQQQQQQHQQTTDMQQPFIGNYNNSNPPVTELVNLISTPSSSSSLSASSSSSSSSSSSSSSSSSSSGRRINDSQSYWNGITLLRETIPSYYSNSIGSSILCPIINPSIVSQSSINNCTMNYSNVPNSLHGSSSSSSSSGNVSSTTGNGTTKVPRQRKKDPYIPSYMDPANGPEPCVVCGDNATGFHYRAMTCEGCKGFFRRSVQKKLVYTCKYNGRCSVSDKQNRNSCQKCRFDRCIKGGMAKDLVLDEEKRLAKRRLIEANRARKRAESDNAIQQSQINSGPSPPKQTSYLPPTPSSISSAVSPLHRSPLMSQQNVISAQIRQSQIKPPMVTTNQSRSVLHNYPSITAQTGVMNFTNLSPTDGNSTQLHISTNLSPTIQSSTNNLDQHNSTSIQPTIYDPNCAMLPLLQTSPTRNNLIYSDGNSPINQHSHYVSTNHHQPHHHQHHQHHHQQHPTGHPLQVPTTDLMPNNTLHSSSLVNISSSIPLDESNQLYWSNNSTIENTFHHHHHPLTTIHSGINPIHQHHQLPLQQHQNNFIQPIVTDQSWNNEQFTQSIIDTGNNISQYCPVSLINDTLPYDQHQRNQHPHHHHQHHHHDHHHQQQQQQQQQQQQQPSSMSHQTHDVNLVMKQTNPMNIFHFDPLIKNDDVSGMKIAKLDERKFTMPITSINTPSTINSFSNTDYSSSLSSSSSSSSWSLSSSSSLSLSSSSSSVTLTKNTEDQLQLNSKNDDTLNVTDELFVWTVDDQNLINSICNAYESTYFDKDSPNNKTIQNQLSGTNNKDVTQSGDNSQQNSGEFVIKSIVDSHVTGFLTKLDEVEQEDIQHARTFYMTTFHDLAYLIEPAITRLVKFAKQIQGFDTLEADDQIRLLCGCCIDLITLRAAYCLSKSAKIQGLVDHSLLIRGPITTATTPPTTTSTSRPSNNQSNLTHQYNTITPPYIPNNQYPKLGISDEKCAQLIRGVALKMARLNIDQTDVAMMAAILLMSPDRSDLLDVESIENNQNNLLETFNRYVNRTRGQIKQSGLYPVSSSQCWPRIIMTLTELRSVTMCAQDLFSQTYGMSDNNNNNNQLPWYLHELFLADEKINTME
The experiment in a line: EMSA; monomer or homodimer; EMSA on ice 40 min, 15 µl with 3 µl 5x buffer (5x: 20% glycerol, 5 mM MgCl2, 2.5 mM EDTA, 2.5 mM DTT, 250 mM NaCl, 50 mM Tris-HCl pH 7.5, 0.25 mg/ml poly(dI-dC)); 6% native gel, 1x TBE, 4°C. The settings on record: protein: ivt; tags: none stated (pCITE-4a); label: 32P; blunt.

Data set [2] has as its target SmTRα(Gln182-Ala288) (Schistosoma mansoni, UniProt Q2TUU7 182-288). The experiment in a line: EMSA; monomer or homodimer; cold self competes; EMSA on ice 40 min, 15 µl with 3 µl 5x buffer (5x: 20% glycerol, 5 mM MgCl2, 2.5 mM EDTA, 2.5 mM DTT, 250 mM NaCl, 50 mM Tris-HCl pH 7.5, 0.25 mg/ml poly(dI-dC)); 6% native gel, 1x TBE, 4°C. Particulars: protein: ivt; tags: none stated (pCITE-4a); label: 32P; blunt.

B1: DR1 (dsDNA)
DNA 1: CCGTAAGGTCACAGGTCACTCG
DNA 2: CGAGTGACCTGTGACCTTACGG
For B1, the binding result in data set [1] and in data set [2] was “binds” in each case.

B2: half-site (dsDNA)
DNA 1: GTACCGTAAGGTCACTCGCGT
DNA 2: ACGCGAGTGACCTTACGGTAC
As to B2, the binding result in data set [1] and in data set [2] was “binds” each time.

B3: DR0 (dsDNA)
DNA 1: CCGTAAGGTCAAGGTCACTCG
DNA 2: CGAGTGACCTTGACCTTACGG
Turning to B3, the binding result in data set [1] and in data set [2] was “binds” throughout.

B4: DR5 (dsDNA)
DNA 1: CCGTAAGGTCACCAGGAGGTCACTCG
DNA 2: CGAGTGACCTCCTGGTGACCTTACGG
With B4, the binding result in data set [1] and in data set [2] was “binds” in each case.

B5: Pal0 (dsDNA)
DNA 1: CGCAAGGTCATGACCTCG
DNA 2: CGAGGTCATGACCTTGCG
As to B5, the binding result in data set [1] and in data set [2] was “binds” throughout.

B6: DR3 (dsDNA)
DNA 1: CCGTAAGGTCACAGAGGTCACTCG
DNA 2: CGAGTGACCTCTGTGACCTTACGG
As for B6, the binding result in data set [1] and in data set [2] was “binds” each time.

B7: DR4 (dsDNA)
DNA 1: CCGTAAGGTCACAGGAGGTCACTCG
DNA 2: CGAGTGACCTCCTGTGACCTTACGG
On to B7, for which the binding result in data set [1] and in data set [2] was “binds” each time.

B8: DR2 (dsDNA)
DNA 1: CCGTAAGGTCACAAGGTCACTCG
DNA 2: CGAGTGACCTTGTGACCTTACGG
Take B8: the binding result in data set [1] and in data set [2] was “binds” in each case.
